The values below come from the supplement of paper PMC9112550, “Optimization of the antimicrobial peptide Bac7 by deep mutational scanning” (BMC Biology, 2022).

This series has as its system Escherichia coli TOP10. Put plainly: shrunken log2 fold change of peptide-encoding DNA abundance (4.5 h post-induction vs induction); higher = less antimicrobial activity (less host growth inhibition). The note with it: time post-induction: 4.5 h; library: site-saturation at positions 5, 18, 19, 20.
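Note: peptides expressed intracellularly from a pBAD plasmid library in pooled LB shake-flask culture, induced with 0.3% L-arabinose, DNA abundance read by NGS, three biological replicates, DESeq2 with apeglm shrinkage.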

RRIRERPPRLPRPRPRPCNFPRP: the “shrunken log2 fold change” value was -0.125.
Next, RRIRKRPPRLPRPRPRPPLDPRP: 0.809; RRIRPRPPRLPRPRPRPSKKPRP: -0.108.
Next, RRIRIRPPRLPRPRPRPLYWPRP: -0.456; RRIRQRPPRLPRPRPRPKNWPRP: 0.139; RRIRQRPPRLPRPRPRPIARPRP: -0.0171.
Next, RRIRLRPPRLPRPRPRPSKTPRP: -0.258; RRIRWRPPRLPRPRPRPQQLPRP: -0.289.
Take RRIRQRPPRLPRPRPRPKTPPRP: the “shrunken log2 fold change” value was -0.0134.
Next, RRIRSRPPRLPRPRPRPKLNPRP: -0.103; RRIRMRPPRLPRPRPRPPGHPRP: 1.03.
Next, RRIRARPPRLPRPRPRPRHVPRP: 0.162; RRIRPRPPRLPRPRPRPEMGPRP: 0.268; RRIRYRPPRLPRPRPRPWCMPRP: -0.383.
Next, RRIRYRPPRLPRPRPRPQNCPRP: -0.0075; RRIRARPPRLPRPRPRPCAIPRP: -0.00341.
For the sequence RRIRNRPPRLPRPRPRPINVPRP, the “shrunken log2 fold change” value was -0.0327.
Next, RRIRNRPPRLPRPRPRPMYDPRP: 0.0456; RRIRGRPPRLPRPRPRPNSCPRP: 0.0941.
Next, RRIRHRPPRLPRPRPRPPQPPRP: 0.216.
Next, RRIRYRPPRLPRPRPRPPPPPRP: 1.2; RRIRMRPPRLPRPRPRPVFTPRP: 0.128; RRIRQRPPRLPRPRPRPNLQPRP: 0.0864.
On to RRIRGRPPRLPRPRPRPFWLPRP, for which the “shrunken log2 fold change” value worked out at 0.299.
Next, RRIRQRPPRLPRPRPRPNCNPRP: -0.882.
Consider RRIRLRPPRLPRPRPRPMRFPRP, for which the “shrunken log2 fold change” value amounted to 0.0595.
Next, RRIRGRPPRLPRPRPRPWVDPRP: 0.308; RRIRPRPPRLPRPRPRPSCLPRP: -0.317.
Next, RRIRYRPPRLPRPRPRPSHIPRP: -1.45; RRIRFRPPRLPRPRPRPNKRPRP: -0.274.
In the case of RRIRSRPPRLPRPRPRPQSNPRP, the “shrunken log2 fold change” value is -0.613.
Next, RRIRLRPPRLPRPRPRPQQFPRP: -0.0691; RRIRWRPPRLPRPRPRPNMEPRP: 0.0936; RRIRGRPPRLPRPRPRPRGIPRP: 1.23.
Next, RRIRLRPPRLPRPRPRPRSAPRP: 0.29; RRIRCRPPRLPRPRPRPHGPPRP: 0.0798; RRIRARPPRLPRPRPRPQKQPRP: -0.00111.
For RRIRRRPPRLPRPRPRPQIQPRP, the “shrunken log2 fold change” value came out at 0.151.
Next, RRIRGRPPRLPRPRPRPHWQPRP: 0.258; RRIRYRPPRLPRPRPRPPSYPRP: -0.156; RRIRKRPPRLPRPRPRPRDYPRP: 0.0161.
Next, RRIRFRPPRLPRPRPRPLWAPRP: -0.151; RRIRERPPRLPRPRPRPKNWPRP: 1.59; RRIRQRPPRLPRPRPRPDSPPRP: 0.0174.
Next, RRIRQRPPRLPRPRPRPGQHPRP: -0.0301; RRIRTRPPRLPRPRPRPMFRPRP: -0.193.
RRIRWRPPRLPRPRPRPFGYPRP: the “shrunken log2 fold change” value was -0.0944.
Next, RRIRVRPPRLPRPRPRPGRQPRP: 0.0976.
On to RRIRTRPPRLPRPRPRPKCRPRP, for which the “shrunken log2 fold change” value is 0.0762.
Next, RRIRARPPRLPRPRPRPQGAPRP: 0.191; RRIRWRPPRLPRPRPRPYIVPRP: -0.727; RRIRHRPPRLPRPRPRPANWPRP: 0.135.
Next, RRIRMRPPRLPRPRPRPKDYPRP: 0.224.
Next, RRIRHRPPRLPRPRPRPAFFPRP: 0.0438.
RRIRERPPRLPRPRPRPYYRPRP: the “shrunken log2 fold change” value was -0.165.
On to RRIRLRPPRLPRPRPRPNNTPRP, for which the “shrunken log2 fold change” value is -0.687.
As to RRIRYRPPRLPRPRPRPWDVPRP, the “shrunken log2 fold change” value is -0.114.
Next, RRIRLRPPRLPRPRPRPHNLPRP: -0.11; RRIRNRPPRLPRPRPRPADPPRP: -0.0809.
Next, RRIRCRPPRLPRPRPRPWTNPRP: -0.0849; RRIRTRPPRLPRPRPRPWIGPRP: -0.233.
For RRIRGRPPRLPRPRPRPGYDPRP, the “shrunken log2 fold change” value was found to be 0.371.
Next, RRIRVRPPRLPRPRPRPGEIPRP: 0.0835; RRIRLRPPRLPRPRPRPQWSPRP: -0.0199; RRIRIRPPRLPRPRPRPPDYPRP: -0.0646.
Next, RRIRFRPPRLPRPRPRPHLMPRP: -0.149; RRIRPRPPRLPRPRPRPIDQPRP: -0.116.
Next, RRIRMRPPRLPRPRPRPIRYPRP: 0.0982.
In the case of RRIRSRPPRLPRPRPRPWDTPRP, the “shrunken log2 fold change” value was -0.0299.
Next, RRIRRRPPRLPRPRPRPTINPRP: -0.134; RRIRDRPPRLPRPRPRPCPFPRP: -0.0587.
On to RRIRWRPPRLPRPRPRPGHAPRP, for which the “shrunken log2 fold change” value came out at 0.234.
Turning to RRIRVRPPRLPRPRPRPAGFPRP, the “shrunken log2 fold change” value worked out at 0.148.
Next, RRIRRRPPRLPRPRPRPKAFPRP: -0.0104; RRIRFRPPRLPRPRPRPWDCPRP: 0.00208.
Next, RRIRMRPPRLPRPRPRPFAYPRP: -0.157.
Next, RRIRTRPPRLPRPRPRPKWPPRP: 1.51; RRIRQRPPRLPRPRPRPIKCPRP: -0.00607.
In the case of RRIRMRPPRLPRPRPRPTRHPRP, the “shrunken log2 fold change” value came out at 0.889.
Next, RRIRLRPPRLPRPRPRPATAPRP: 0.214.
Next, RRIRWRPPRLPRPRPRPPVHPRP: -0.221.
Next, RRIRFRPPRLPRPRPRPNNFPRP: -0.383; RRIRGRPPRLPRPRPRPAIFPRP: 0.583; RRIRYRPPRLPRPRPRPAAFPRP: -0.757.
As for RRIRDRPPRLPRPRPRPYNYPRP, the “shrunken log2 fold change” value was -0.27.
Next, RRIRNRPPRLPRPRPRPPDVPRP: -0.14; RRIRARPPRLPRPRPRPKFVPRP: 0.301; RRIRMRPPRLPRPRPRPPVSPRP: 1.27.
Next, RRIRSRPPRLPRPRPRPDAWPRP: 0.545; RRIRTRPPRLPRPRPRPINKPRP: -0.322.
Next, RRIRSRPPRLPRPRPRPQNVPRP: -0.209.
